The source of these data is a protein production outcome set (Wang et al. 2014).

The data set is described as follows: label from the status in PepcDB records.

With “MEREEIIERFLKFFREYAEEGEEPLYMGKIKDLLTITPKRSIVINWMHLNSYDPELAEEVIENPEECILAAEDAIQIILKEDFLREDVPKIHARFHNLPKTLMVKEVGAEHINKLIQVEGVVTRVTEIKPFVSVAVFVCKDCGHEMVVPQKPYEGFVAVKKCEQCGSKNVQLDVEKSKFVNFQMFRIQDRPESLRGGQMPRFIDGILLDDIVDTAMPGDRVIVVGILRVIQEKREKVPTFKKVIEVNHIEPISKELEELEISPEDEQKIRELAKRKDIVSAIVDSIAPAIYGYKEVKKGIALALFGGVSRTLPDGTRLRGDIHVLLVGDPGVAKCVDYDTEVLLGDGRKRKIGEIVEEAIKKAEKEGKLGRVDDGFYAPINLELYALDVRTLKVRKVKADIAWKRTTPEKMLRIRTKRGREIRVTPTHPFFTLEEGRIKTKKAYELKVGEKIATPREEAPEAEIFWDEVVEIEEYKPNNSWVYDLQVPEHHNFIANGIFVHNSQLLRYVANLAPRAIYTSGKSSSAAGLCVAPDTLINTDNGRVEIGKFVEEWMKEVGEISEEGISYAPCFRKVETFKDGKIVESPIRRVWKLRAPKKLVRIKTENGRSIALTRETKLLTINDGELSWVEAGEVKVGTYVGTVKSEKDVIPGAGKTIRDVSKLYNMEMEVKDYLTREEVRKAIEKLEEIMNPMNIKIPGVQESYEELLRKLETTNDERVRNETLILLSDVSDAHELAKEKIEKIKEIVNSEVHWEKVTEVGEVDGVEYVYDLTVEGSHNFVANGFIVHNTAAVVRDEFTGGWVLEAGALVLADGGYALIDELDKMSDRDRSVIHEALEQQTISLSKAGITATLNARTTVIAAANPKHGRFNRMKRVSEQIDLPPTLLSRFDLIFVLMDEPDEKVDSEIARHILKVRRGESEVVTPKIPHELLRKYIAYARKNIHPVISEEAMEEIEKYYVKMRRSAKKSSGDEIKPIPITARQLEALIRLSEAHARMRLSPIVTREDAREAIKLMEYTLKQIAVDEAGQLDVTILEVGQSARKLSKVERILDIVEKLERTSEKGAKIDDILEEAAKFGIEKSEAREILEKLLEKGQIYMPENGYYKTV”, the protein production entry is on record as “failed”.

Consider “MERIAMNPLMQQAIQFANDHETAWDRSVRGNFGVHLDDPPPWNRLLGPVHDRGPVSGVVVVDGQTLASWGEPERADLTFSVAKLYLSILAGVAHDRGLLPDVDEPVGRRVPGIGFDAGRNARITWRHLLQQTSEWEGERFGVPDQADRYRAVAFGIPPDGRKGDARPLQEPGTYWEYNDVRINQLSYALLHLFRRPLPEVFREAVTRPLGASEDWQWVGYDNAWVDIDGVRMPSVPGGTHWGGGMSISARDQALIGRMLLDEGRAADGRQVLSPAWIQAMRTPCDIAPYYGYLIWLNHERKVFPSVPASSFFGIGAGSSFTWVEPERRMVVIVRWLDAAYADALFGRILAAVDAHRAGLEHHHHHH”, for which the protein production result is given as “failed”. Regarding “MERIRWLYGFLACILIAILLAPLQIMAQGEFRTSDQPLVYYIPVEQEVERGLEAFLQRSLDSAVEEGADHIVLEINTPGGRVDAAGNMARALRETDIPITAYVIDQALSAGAYIALNADEIVMAPGSTMGSAAVIDSAGNAADEKAQSYWLAEMRNAAEYNDRDPKYALAMADRSIEIPELDISNEELLTLTASQALEVNYAEAIASNRAELLEHLQIDNAFEQEMEVSFAEKLARFVTNPLIIPILLSIGSLGLVLELYSPGFGVPGIMGISALLLFFFGHLIAGFAGYEAMILFIAGFLLILIEVFMPGFGLFGILGIAGMIGGMLLASFSTAWMLVSLGISAVVTTVVAIITFRYFGSRGPWKKMILTESTSSEKGYITNETRQELVGLIGQSLTPLRPSGSGLFGEERLDVVSEGGYIEQGRKIKVVSTSGSRIVVRETDE”, the protein production entry is recorded as “failed”. Turning to “MERKKITFDSFIRGSICCALIVGLLILFKRLSGVLLPFFVAWLIAYMIYPLVKFFQYKLRFKSRIISIFCALFSITIVGISLFYLLVPPMLAEMGRMNDLLVTYLTNGAYSSGTVPPTLSEFIHKHIDLQALNRILSEENIMNTIKETVPKLWALVAESINILFSVFASFIILLYVVFILLDYESIAEGWLHLLPGKYRTFASNLVNDIQDGMNRYFRGQAFVAFCVGILFSIGFLIIDFPMAIALGLFIGALNMVPYLQIIGFLPTIVLAILKAADTGENFWVILAGALIVFIVVQAIQDGFLVPRIMGKITGLNPAIILLSLSIWGSLLGMLGMIIALPLTTLMLSYYQRFIINKEKIKYDRHEVTDNQSAEENTKK”, the protein production result is “failed”.
